One protein from patent US6368828 (US Dept. of Health and Human Services, dated 2002) can be followed below.

The series deals with the molecule itself. Description: DSG crosslinking of whole cell lysates; immunoprecipitation and immunoblot with anti-Stat6 serum. How it is done: Effect of Stat6c on endogenous Stat6 dimerization. To elucidate the molecular mechanism of Stat6c's potent transcriptional […], several possibilities were considered. Because endogenous Stat6 tyrosine phosphorylation is only partly diminished by Stat6c, inhibition of IL-4-induced endogenous Stat6 association with IL-4Rα or JAK activation appeared unlikely. […] Therefore, crosslinking studies were performed to investigate whether Stat6c might effect endogenous Stat6 dimerization. Whole cell lysates from IL-4-treated FDC-P2 cells or Stat6 and Stat6c transfectants were incubated with disuccinimidyl glutarate (DSG).
In general terms: Immunoblotting shows a protein as a band on a membrane.

B1: endogenous murine Stat6 (other, UniProt P52633 1-837, looked up)
chain: MSLWGLISKMSPEKLQRLYVDFPQRLRHLLADWLESQPWEFLVGSDAFCYNMASALLSATVQRLQATAGEQGKGNSILPHISTLESIYQRDPLKLVATIRQILQGEKKAVIEEFRHLPGPFHRKQEELKFTTALGRLQHRVRETRLLRESLQQGAKTGQVSLQNLIDPPVNGPGPSEDLATMLQGTVGDLEATQALVLKRIQIWKRQQQLAGNGTPFEESLAGLQERCESLVEIYSQLQQEIGAASGELEPKTRASLISRLDEVLRTLVTSSFLVEKQPPQVLKTQTKFQAGVRFLLGLQFLGTSAKPPMVRADMVTEKQARELSLAQGPGTGVESTGEIMNNTVPLENSIPSNCCSALFKNLLLKKIKRCERKGTESVTEEKCAVLFSTSFTLGPNKLLIQLQALSLPLVVIVHGNQDNNAKATILWDNAFSEMDRVPFVVAERVPWEKMCETLNLKFMAEVGTSRGLLPEHFLFLAQKIFNDNSLSVEAFQHRCVSWSQFNKEILLGRGFTFWQWFDGVLDLTKRCLRSYWSDRLIIGFISKQYVTSLLLNEPDGTFLLRFSDSEIGGITIAHVIRGQDGSSQIENIQPFSAKDLSIRSLGDRIRDLAQLKNLYPKKPKDEAFRSHYKPEQMGKDGRGYVSTTIKMTVERDQPLPTPEPQMPAMVPPYDLGMAPDASMQLSSDMGYPPQSIHSFQSLEESMSVLPSFQEPHLQMPPNMSQITMPFDQPHPQGLLQCQSQEHAVSSPEPMLCSDVTMVEDSCLTQPVGGFPQGTWVSEDMYPPLMPPTEQDLTKLLLENQGEAGGSLGSQPLLQPSPYGQSGISLSHLDLRTNPSW
notes: Endogenous protein in FDC-P2 whole cell lysates; also called endogenous Stat6
For B1, the binding result is on record as “binds”.
